How the values were obtained:
[1] = target: T1, mouse CCL21 (mouse, UniProt P84444 24-133); experiment: slot blot of human and mouse CCL21 protein probed with the monoclonal antibody
T1 construct: also called murine CCL21
T1 sequence (looked up): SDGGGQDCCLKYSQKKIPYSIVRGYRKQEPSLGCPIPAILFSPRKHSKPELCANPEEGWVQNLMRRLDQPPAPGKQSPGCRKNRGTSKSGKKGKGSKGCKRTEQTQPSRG

[2] = target: T2, human CCL21 (chemokine (C-C motif) ligand 21) (human, UniProt O00585 24-134); experiment: western blot of human CCL21 protein probed with hybridoma supernatant ('Supernatent BalbC (1:10)')
T2 construct: The same entry is used for native CCL21 stained in tissue; also called hCCL21; rhCCL21
T2 sequence (looked up): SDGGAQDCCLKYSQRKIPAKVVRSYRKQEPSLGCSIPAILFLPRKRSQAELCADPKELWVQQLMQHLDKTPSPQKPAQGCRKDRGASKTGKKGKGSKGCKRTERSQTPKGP

[3] = target: T3, CCL21 pep 1; experiment: slot blot; each lane holds only CCL21, pep 1 or pep 2 in the amount printed, probed with the monoclonal antibody (the legend calls it a competition)
T3 construct: One of the two peptides behind r1 of the first reading
T3 peptide: SLLILVLAFGIPR

[4] = target: T4, CCL21 pep 2; experiment: as above
T4 construct: One of the two peptides behind r1 of the first reading
T4 peptide: KYSQRKIPAKVVR

[5] = target: T5, human chemokine CCL19 (human, UniProt Q99731 22-98); experiment: western blot of human CCL19 and human CCL21 probed with the monoclonal antibody
T5 sequence (looked up): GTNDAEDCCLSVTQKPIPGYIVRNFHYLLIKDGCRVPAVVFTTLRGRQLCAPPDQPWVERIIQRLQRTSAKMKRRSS

B1: anti-CCL21 murine monoclonal antibody Clone #8 (C8) (antibody, V domains shown)
VH: EVQLQQSGAEIVRSGASVRLSCTASGFNIKDFYLNWVKQRPEQGLDWIGWIDPENGDTEYAPKFQGKATMTADTSSNTIYLHLSSLTSEDTAVYYCNAFDYDYWGQGTTLTVSS
VL: DIQMNQSPSSLSASLGDTVTITCHASQNINVWLSWYQQKPGNIPKLLIYKASNLHTGVPSRFSGSGSGTGFTLTISSLHPEDIATYYCHQGHSFPLTFGAGTKLELK
notes: Mouse monoclonal from immunized BALB/C mice; also called anti-CCL21 C8
B1: no binding (tested: 1.0 µg) [1]; binds [2]; binds [3]. B1: no binding (tested: 1.0 µg) [4]; no binding (tested: 100 ng) [5].

From patent US20240018228A1 (University of Texas, published 2024)
